Source: patent publication US5780221A, “Identification of enantiomeric ligands” (Whitehead Institute for Biomedical Research, priority 1996, dated 1998)
Square brackets hold non-standard residues; d marks the D form. Ends that are not written are not given here.

What was measured:
L-SH3 domain [1] = target: T1, L-SH3 domain (Gallus gallus, UniProt P00523); assay: ELISA and NMR binding check of D-amino acid version of background sequence; parameters: species or system chicken; conditions: as judged by ELISA and NMR studies
T1 construct: Residues 81 to 140 of chicken c-SRC were cloned; modified TrpLE leader (Met to Leu, Cys to Ala) (N, cleaved yes); His9 within the C-terminal region of the TrpLE leader (N, cleaved yes); made in house; host or cells: Escherichia coli BL21(DE3) pLysS, plasmid pMMHb-SRC SH3

L-SH3 domain [2] = target: T1, L-SH3 domain; assay: Screening of the phage library with the L-SH3 domain; format: binding, chicken
Experimental: Phage display with the L-SH3 domain was also assessed. When the (L)-SH3 domain is used to screen a phage library (A12) for interacting sequences the poly-proline sequences that have been observed by others Rickles, R. J., et al., EMBO J., 13:5598 (1994); Sparks, A. B., J. Biol. Chem., 39:23853 (1994); Cheadle, C., et al., Ibid, 39:24034 (1994) are isolated.
The sequences of these peptides have features consistent with those described for class I and class II ligands of the SH3 domain ((Yu, H., et al., Cell, 76:933 (1994); Rickles, R. J. et al., EMBO J., 13:5598 (1994; Sparks, A. B., et al., J. Biol. Chem., 269:23853 (1994); Cheadle, C., et al., ibid., p. 24034)).

(D)-Src SH3 domain [3] = target: T2, (D)-Src SH3 domain (Gallus gallus, UniProt P00523); assay: Screening (selection rounds) of the phage library with the (D)-SH3 domain; format: binding, chicken; conditions: for Number of Isolates, low stringency: 4 rounds, 16 hrs phage incubation, washes 3', 5', 10' in rounds 2-4; for isolates after four rounds of selection: 29 clones sequenced after four rounds
Excerpt: The all D amino acid SH3 domain, sequence […] S-COOH-terminus (SEQ ID No: 1), residues 81-140 of chicken c-SRC, was synthesized on HMP resin (ABI/Perkin Elmer) with an ABI 431A peptide synthesizer and ABI fastmoc cycles (Fmoc chemistry with HBTU activation and capping with acetic anhydride). Protected D-amino acids were obtained from Bachem California., Bachem Bioscience, Advanced Chemtech, and Novabiochem. For D-Ile and D-Thr, the side chain enantiomers were used, in which the chirality of the side chain is also inverted relative to naturally occurring L-Thr and L-Ile. After completion of the synthesis, the NH2 -terminus of the peptide was modified with NHS-LC-biotin II (Pierce). After cleavage, the peptide was lyophilized, dissolved in 6 M guanidine HCl, pH 6.0, and dialyzed against 100 mM NaHPO4 and 100 mM NaCl, pH 6.0, with the use of dialysis tubing with a molecular cutoff of 3,500 daltons (D) (Spectra/Por). After dialysis the material was spun briefly to remove insoluble debris, and the supernatant was subsequently dialyzed against 5% acetic acid and lyophilized. The peptide was dissolved at a concentration of 3.3 mg/ml in Tris-buffered saline (50 mM Tris, pH 7.5, and 150 mM NaCl) containing 1 mM biotin. The full biotinylated 60 amino acid (D)-SH3 domain length product was refolded and purified by affinity chromatography on an all-(D) version of a known substrate for the Src SH3 domain (D)-[…] (SEQ ID NO:2), Yu, H., et al., Cell, 76:933 (1994)), that was biotinylated and immobilized on a streptavidin-agarose column (Pierce). This peptide is a derivative of an all (L)-peptide shown to bind to the all (L)-SH3 domain (Yu, H., et al., Cell,76:933-945 (1994)), with an NH2 -terminal YGG added to facilitate concentration determination (H. Edelhoch, Biochemistry, 6:1948 (1967)). The L-peptide with the same NH2 -terminal YGG served as a control ligand in the experiments.
Single wells of a flatbottom 96 well high binding E.I.A./R.I.A. plate (Costar) were coated overnight with 10 μg streptavidin (Pierce) in 100 μl 100 mM NaHCO3 at 4° C. After a single wash with water, wells were incubated with 100 μl (10.7 μg) of biotinylated (D)-SH3 for 1 hr. at 20° C., blocked for 2 hrs with 30 mg/ml dialyzed bovine serum albumin (BSA) in 100 mM NaHCO3, and again incubated with 100 μl ([…]) of biotinylated (D)-SH3 for 1 hr. Unliganded streptavidin was blocked for 30 minutes by the addition of 8 μl 5 mM biotin in tris-buffered saline (TBS). Wells were subsequently washed 5 times with phosphate buffered saline (PBS) and 0.1% Tween-20, and incubated overnight with 50 μl of the phage stock in TBS/NaN3 and 50 μl of TBS, 0.1% Tween-20, 1 mg/ml BSA and 0.05% NaN3. Wells were subsequently washed by six additions of 200 μl of TBS, 0.1% Tween-20 and 1 mg/ml BSA with increasing incubation times in the later rounds of the selection procedure. (D)-SH3 bound phage particles were subsequently eluted by the addition of 100 μl D-SH3 ligand peptide (715 μM), sequence D-[…]-amide (SEQ ID No: 2), for 15 minutes at 4° C., at a final concentration of 700 to 1000 μM peptide. Acid elution of phages in this screen gives no detectable preferential binding to D-SH3 coated wells after four rounds of selection. The eluate was subsequently used to infect K91-kan cells. Briefly 100 μl eluate was mixed with 100 μl K91 Terrific Broth cells (prepared as described) an incubated for 20 minutes at room temperature. The mixture was subsequently transferred into an Erlenmeyer flask containing 20 ml LB/0.2 μg/ml tetracycline. After 1 hr incubation while shaking at 37° C., tetracycline was added to a final concentration of 20 μg/ml, appropriate dilutions were plated on tetracycline-containing plates ([…]) to determine the titer of the eluate and the culture was incubated at 37° C. for 12-16 hrs. Phage were isolated from the supernatant by two PEG precipitations and the resulting phage stock was used for titering to determine the yield, and for the subsequent round of selection. […]

[4] = target: T3, lectin concanavalin A (Con A) (Canavalia ensiformis, UniProt P02866); assay: Con A screen of the phage library; format: binding; conditions: after 3 rounds
T3 construct: mature circularly permuted chain
Experimental: The library was made by ligation of a random PCR product into Sfi I-cut Fuse 5 vector. After ligation the reaction mixture was extracted with phenol and chloroform, ethanol-precipitated and taken up in 10 mM Tris/1 m mM EDTA (pH 8.0). The ligation product was subsequently transferred into electrocompetent MC1061 cells (Biorad) using a Bio-Rad E. coli pulser and 0.1 cm cuvettes. After non-restrictive growth for 1 hr aliquots of transformed cells were plated on tetracycline-containing plates to determine the efficiency of transformation, yielding an initial library of 3.6×108 transformants. The transformation mixture was subsequently diluted to a volume of 400 ml LB and 20 μg/ml tetracycline, and grown for an additional 14 hrs. A phage stock was prepared by two successive polyethylene glycol (PEG) precipitations of the culture supernatant as described. The phage stock was finally resuspended in tris buffered saline/NaN3 and titered by infection of K91-kan cells (A21), yielding a total of 2.8×10^11 transforming units. The randomness of the inserts was confirmed by sequencing of individual clones. 4×10^10 transforming units were subsequently used to infect K91-kan cells to generate an amplified library. After 18 hrs phage were purified by three repetitive PEG precipitations yielding 10 ml of the amplified phage library (1.2-10^12 transforming units/ml) in TBS/NaN3. […]

(L)-SH3 = target: T4, (L)-SH3 (Gallus gallus, UniProt P00523); assay: Retention of bacterially expressed (L)-SH3 on peptide affinity column; format: binding; conditions: residues 81-140 of chicken c-Src
T4 construct: E. coli BL21(DE3) pLysS, pMMHb TrpLE-His9 fusion, cleaved with CNBr
Experimental: The L- and D-enantiomers of the chicken c-SRC domain were prepared by bacterial expression and chemical synthesis, respectively. The biotinylated, synthetic, 60-amino acid D-SH3 domain was refolded and purified by affinity chromatography, with a D-amino acid version of a known peptide ligand for the SH3 domain (Yu, H., et al., Cell, 76:933 (1994)).
The all D amino acid SH3 domain, sequence […] S-COOH-terminus (SEQ ID No: 1), residues 81-140 of chicken c-SRC, was synthesized on HMP resin (ABI/Perkin Elmer) with an ABI 431A peptide synthesizer and ABI fastmoc cycles (Fmoc chemistry with HBTU activation and capping with acetic anhydride). Protected D-amino acids were obtained from Bachem California., Bachem Bioscience, Advanced Chemtech, and Novabiochem. For D-Ile and D-Thr, the side chain enantiomers were used, in which the chirality of the side chain is also inverted relative to naturally occurring L-Thr and L-Ile. After completion of the synthesis, the NH2 -terminus of the peptide was modified with NHS-LC-biotin II (Pierce). After cleavage, the peptide was lyophilized, dissolved in 6 M guanidine HCl, pH 6.0, and dialyzed against 100 mM NaHPO4 and 100 mM NaCl, pH 6.0, with the use of dialysis tubing with a molecular cutoff of 3,500 daltons (D) (Spectra/Por). […]

(D)-Src SH3 domain [5] = target: T2, (D)-Src SH3 domain; assay: Screening (selection rounds) of the phage library with the (D)-SH3 domain; format: binding, chicken; conditions: for Number of Isolates, high stringency: 4 rounds, 2 fold less (D)-Src SH3, 1 hr phage incubation, washes 10' in rounds 2-4
[6] = tested on: synthetic D-vasopressin (DVP); assay: Affinity chromatography on D-vasopressin (DVP) resin, in vitro selection of ssDNAs; format: binding; conditions: for binding to DVP: affinity chromatography, positive ssDNA
Excerpt: In the first step toward generating an antagonist of the peptide hormone L-vasopressin, an in vitro selection was used to isolate single-stranded DNAs (ssDNAs) that bind synthetic D-vasopressin (DVP). A starting pool of 10^16 different 96-mers was synthesized on a DNA synthesizer. Each pool molecule contained a central region with 60 random-sequence positions that was flanked by two 18-nt defined regions. Molecules within this starting pool that bind DVP were enriched by affinity chromatography. The affinity resin was prepared by coupling biotinylated DVP to streptavidin agarose. The ssDNA pool was radiolabeled, denatured, renatured in a physiological buffer and passed over this resin. […] Eluted pool was amplified by PCR using a negative-strand "primer-terminator", that is, an oligonucleotide bearing a central segment of non-nucleotide material that blocks further extension of the positive strand (Williams, K. P. and Bartel, D. P., Nucleic Acids Res., 23:4220-4221 (1995)). Such PCR results in a substantial size difference between the two product strands, facilitating gel-purification of the positivestrand ssDNA pool. This combination of affinity chromatography and PCR constituted one cycle of selection amplification.
After thirteen iterations of the selectionamplification cycle the pool was cloned. […] Positive ssDNA of each sequence binds DVP and both have potential to form very similar secondary structures.

Q: How did the “binding to the L-SH3 domain” value (L-SH3 domain [1]) turn out when “D-amino acid version of this sequence: D-amino acid version of CKRFVWRGQALC (SEQ ID No: 13) ([dC][dK][dR][dF][dV][dW][dR]G[dQ][dA][dL][dC]; cysteine pairing not given here)” was run?
A: The value was “fails to bind to the L-SH3 domain”.

Q: How did the “isolates after four rounds of selection with the L-SH3 domain” value (L-SH3 domain [2]) turn out when SRMSPLVPLRNS was run?
A: The value was “one”.

Q: For CWYLGYWPGQEC, which “Number of Isolates, low stringency” value ((D)-Src SH3 domain [3]) is on record?
A: The value was 12.

Q: And the “isolates after four rounds of selection” value ((D)-Src SH3 domain [3])?
A: The value was 12 isolates.

Q: For CLSGLRLGLVPC, which “Number of Isolates, low stringency” value ((D)-Src SH3 domain [3]) is on record?
A: The value was 2.

Q: Which “Number of Isolates, low stringency” value ((D)-Src SH3 domain [3]) does the source give for “CAYGFKLGLIKC [clone has alanine to arginine substitution directly amino terminal to the insert]” here?
A: The value was 1.

Q: With “AS W R Y N Y A F M R Y SA (ASWRYNYAFMRYSA)” as the molecule, how does the “number in parentheses after sequence, Con A screen” value [4] read?
A: Its value is 1.

Q: For “(D)-YGGRELPPLPRF ([dY]GG[dR][dE][dL][dP][dP][dL][dP][dR][dF]; also: biotinylated, site not given here) [all-(D) version of a known substrate for the Src SH3 domain]”, which “retention of bacterially expressed (L)-SH3 on peptide column” value ((L)-SH3) is on record?
A: The value was “not on the (D)-enantiomer”.

Q: With CLMGLRLGLLPC as the molecule, how does the “sequences revealed after fifth round of selection” value ((D)-Src SH3 domain [5]; fifth round with neutravidin as a matrix) read?
A: The value was “only sequences of the fdSRC-2-type”.

Q: What about the “Number of Isolates, low stringency” value ((D)-Src SH3 domain [3]) of the same molecule?
A: Its value is 4.

Q: For “AS M W M Y P Y P W G V SA (ASMWMYPYPWGVSA)”, which “number in parentheses after sequence, Con A screen” value [4] is on record?
A: Its value is 9.

Q: How did the “Number of Isolates, high stringency” value ((D)-Src SH3 domain [5]) turn out when CKRFVWRGQALC was run?
A: The value was 14.

Q: And the “Number of Isolates, low stringency” value ((D)-Src SH3 domain [3])?
A: The value was 10.

Q: And the “isolates after four rounds of selection” value ((D)-Src SH3 domain [3])?
A: Its value is 10 isolates.

Q: With CLARSRLPAIPS as the molecule, how does the “isolates after four rounds of selection with the L-SH3 domain” value (L-SH3 domain [2]) read?
A: The value was “nine”.

Q: Which “Number of Isolates, high stringency” value ((D)-Src SH3 domain [5]) does the source give for CSRASWRGLLFC here?
A: The value was 1.

B1: 96.4: D-vasopressin aptamer, ssDNA 96-mer (nucleic acid)
chain: TCTAACGTGAATGATAGACGTTACGTGTCTACACTATGTCGAGTTGCTGTGTGCCGATGAACGTGGGATTAGAGCGTGTTAACTTATTCGACCAAA
modifications: DNA, backbone not given here
notes: D-vasopressin aptamer, ssDNA 96-mer
Q: For B1, which “binding to DVP” value [6] is on record?
A: The value was “binds DVP”.

B2: 96.2: D-vasopressin aptamer, ssDNA 96-mer (nucleic acid)
chain: TCTAACGTGAATGATAGACGGCGAATCCCCAATGCGAAGCAGTGGTTTTGCAGTCGAGTTGCTGTGTGCCGATGAGCGTTAACTTATTCGACCAAA
modifications: DNA, backbone not given here
notes: as for B1
Q: Which “binding to DVP” value [6] does the source give for B2 here?
A: Its value is “binds DVP”.

B3: 69.1: D-vasopressin aptamer, deletion derivative of 96.4 (nucleic acid)
chain: TCTAACGTGAATGATAGACGTTACGTGTCTACACTATGTCGAGTTGCTGTGTGCCGATGAACGTGGGAT
modifications: chemistry not given here
Q: For B3, which “elution from the DVP resin by L-vasopressin” value ([6]; DVP resin, L-vasopressin) is on record?
A: Its value is “not eluted from the DVP resin by L-vasopressin”.

Q: And the “binding to DVP” value [6]?
A: Its value is “appears to bind DVP better than does the parent sequence”.
